Experimental data taken from PMC3411048 (The Journal of Biological Chemistry, 2012).
Square brackets hold non-standard residues; d marks the D form. Ends that are not written are not given here. pY = N[C@@H](Cc1ccc(OP(=O)(O)O)cc1)C(=O)O

Columns and labels:
[1] = test system: SHP2; settings: ref [11], [36]; cited from earlier work
[2] = test system: N-SH2 domain of the phosphatase; settings: phosphorylated tyrosine of N-terminal portion; ref [36]; cited from earlier work
[3] = Phosphopeptide array binding analysis; settings: Two Sample Logo, peptide array, GST-tagged N-SH2 domain 1 μg/ml

Molecule | phosphopeptide positions mediating binding specificity (from pY) [3] | other results
GGGGDIT(pY)ADLNLPKGKKPAPQAAEPNNHTE(pY)ASIQTS [BTAM peptide] |  | activation of SHP2 [1]: previously demonstrated to activate SHP2
GGGGDIT[pY]ADLNLPKGKK [N-terminal portion of the BTAM peptide] |  | binding to N-SH2 domain [2]: known to bind specifically the N-SH2 domain of the phosphatase
wild-type domain: isolated wild-type N-SH2 domain (residues 6–103), polyHis- or GST-tagged (protein, left off: polyHis, end not stated, kept) WFHPNITGVEAENLLLTRGVDGSFLARPSKSNPGDFTLSVRRNGAVTHIKIQNTGDYYDLYGGEKFATLAELVQYYMEHHGQLKEKNGDVIELKYPLN | −2, −1, +1, +2, and +3 from the phosphotyrosine | 
N-SH2^Asp62 (protein, left off: polyHis, end not stated, kept) WFHPNITGVEAENLLLTRGVDGSFLARPSKSNPGDFTLSVRRNGAVTHIKIQNTGDDYDLYGGEKFATLAELVQYYMEHHGQLKEKNGDVIELKYPLN | Those positions were found to bear the highest information content | 
N-SH2^Lys76 (protein, left off: GST, end not stated, kept) WFHPNITGVEAENLLLTRGVDGSFLARPSKSNPGDFTLSVRRNGAVTHIKIQNTGDYYDLYGGEKFATLAKLVQYYMEHHGQLKEKNGDVIELKYPLN | Those positions were found to bear the highest information content | 
N-SH2^Cys63 (protein, left off: polyHis, end not stated, kept) WFHPNITGVEAENLLLTRGVDGSFLARPSKSNPGDFTLSVRRNGAVTHIKIQNTGDYCDLYGGEKFATLAELVQYYMEHHGQLKEKNGDVIELKYPLN | Those positions were found to bear the highest information content | 
